From the supplement of paper PMC10567573

B1: KCTD10 (parent)
chain: SSKEEQKLIATSNKPAVKLLYNRS

Variants of: B1
Assay: protein stability index of a GFP-peptide fusion (GPS, HEK-293T) (PSI 1-6); higher = more stable
Conditions: c terminus: a fixed tail appended
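Also: lentivirally expressed fusions sorted by FACS into six bins by GFP to DsRed ratio, PSI derived from sequencing read proportions per bin multiplied by bin number.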

First: SSKEEQKLIATSNKKAVKLLYNRS
Second: SSKEEQKLIATSNKWAVKLLYNRS
The protein stability index of the first is higher: 3.39 for the first, 2.19 for the second.

Compared with SSKEEQKLIATSNKTAVKLLYNRS, SSKEEQKLIATSNKFAVKLLYNRS is lower in protein stability index: 3.73 for the first, 3.1 for the second.

Going from SSKEEQKLIATSNKHAVKLLYNRS to SSKEEQKLIATSNKLAVKLLYNRS, the protein stability index falls from 3.86 to 2.93.

Compared with SSKEEQKLIATSNKNAVKLLYNRS, SSKEEQKLIATSNKRAVKLLYNRS is lower in protein stability index: 4.08 for the first, 3.51 for the second.

Going from SSKEEQKLIATSNKMAVKLLYNRS to SSKEEQKLIATSNKEAVKLLYNRS, the protein stability index rises from 3.47 to 4.53.

Compared with SSKEEQKLIATSNKQAVKLLYNRS, SSKEEQKLIATSNKVAVKLLYNRS is lower in protein stability index: 3.96 for the first, 3.13 for the second.

First: SSKEEQKLIATSNKYAVKLLYNRS
Second: SSKEEQKLIATSNKSAVKLLYNRS
The protein stability index of the first is lower: 3.1 for the first, 4.07 for the second.

Compared with SSKEEQKLIATSNKGAVKLLYNRS, SSKEEQKLIATSNKIAVKLLYNRS is lower in protein stability index: 4.24 for the first, 2.81 for the second.

Compared with SSKEEQKLIATSNKPKVKLLYNRS, SSKEEQKLIATSNKPVVKLLYNRS is lower in protein stability index: 4.33 for the first, 3.89 for the second.

Going from SSKEEQKLIATSNKPWVKLLYNRS to SSKEEQKLIATSNKPMVKLLYNRS, the protein stability index rises from 2.94 to 3.84.

Compared with SSKEEQKLIATSNKPFVKLLYNRS, SSKEEQKLIATSNKPQVKLLYNRS is higher in protein stability index: 3.57 for the first, 4.19 for the second.

Going from SSKEEQKLIATSNKPRVKLLYNRS to SSKEEQKLIATSNKPEVKLLYNRS, the protein stability index rises from 3.8 to 4.26.

Compared with SSKEEQKLIATSNKPNVKLLYNRS, SSKEEQKLIATSNKPLVKLLYNRS is lower in protein stability index: 4.19 for the first, 3.54 for the second.

Compared with SSKEEQKLIATSNKPGVKLLYNRS, SSKEEQKLIATSNKPCVKLLYNRS is lower in protein stability index: 3.79 for the first, 3.74 for the second.

Going from SSKEEQKLIATSNKPIVKLLYNRS to SSKEEQKLIATSNKPYVKLLYNRS, the protein stability index falls from 3.97 to 3.56.

Going from SSKEEQKLIATSNKPPVKLLYNRS to SSKEEQKLIATSNKPDVKLLYNRS, the protein stability index rises from 3.95 to 4.18.

First: SSKEEQKLIATSNKPSVKLLYNRS
Second: SSKEEQKLIATSNKPTVKLLYNRS
The protein stability index of the first is higher: 4.2 for the first, 4.1 for the second.

First: SSKEEQKLIATSNKPHVKLLYNRS
Second: SSKEEQKLIATSNKPAVKLCYNRS
The protein stability index of the first is higher: 4.16 for the first, 3.79 for the second.

Compared with SSKEEQKLIATSNKPAVKLAYNRS, SSKEEQKLIATSNKPASKLLYNRS is lower in protein stability index: 4.89 for the first, 4.3 for the second.

First: SSKEEQKLIATSNKPAQKLLYNRS
Second: SSKEEQKLIATSNKPAEKLLYNRS
The protein stability index of the first is higher: 4.52 for the first, 4.15 for the second.

Going from SSKEEQKLIATSNKPAGKLLYNRS to SSKEEQKLIATSNKPAYKLLYNRS, the protein stability index falls from 4.3 to 3.51.

Compared with SSKEEQKLIATSNKPAIKLLYNRS, SSKEEQKLIATSNKPATKLLYNRS is higher in protein stability index: 4.02 for the first, 4.28 for the second.

Going from SSKEEQKLIATSNKPAMKLLYNRS to SSKEEQKLIATSNKPAFKLLYNRS, the protein stability index falls from 3.97 to 2.74.

First: SSKEEQKLIATSNKPANKLLYNRS
Second: SSKEEQKLIATSNKPALKLLYNRS
The protein stability index of the first is higher: 4.76 for the first, 4.02 for the second.

First: SSKEEQKLIATSNKPACKLLYNRS
Second: SSKEEQKLIATSNKPAPKLLYNRS
The protein stability index of the first is lower: 4.21 for the first, 4.31 for the second.

Compared with SSKEEQKLIATSNKPAHKLLYNRS, SSKEEQKLIATSNKPARKLLYNRS is lower in protein stability index: 4.35 for the first, 3.94 for the second.

First: SSKEEQKLIATSNKPAAKLLYNRS
Second: SSKEEQKLIATSNKPAWKLLYNRS
The protein stability index of the first is higher: 4.34 for the first, 3.39 for the second.

Going from SSKEEQKLIATSNKPADKLLYNRS to SSKEEQKLIATSNKPAKKLLYNRS, the protein stability index rises from 4.41 to 4.61.

Going from SSKEEQKLIATSNKPAVWLLYNRS to SSKEEQKLIATSNKPAVILLYNRS, the protein stability index falls from 2.4 to 2.34.

Compared with SSKEEQKLIATSNKPAVYLLYNRS, SSKEEQKLIATSNKPAVPLLYNRS is higher in protein stability index: 3.03 for the first, 4.25 for the second.

Compared with SSKEEQKLIATSNKPAVHLLYNRS, SSKEEQKLIATSNKPAVRLLYNRS is higher in protein stability index: 3.89 for the first, 4.33 for the second.

Going from SSKEEQKLIATSNKPAVDLLYNRS to SSKEEQKLIATSNKPAVTLLYNRS, the protein stability index falls from 4.25 to 3.74.

Compared with SSKEEQKLIATSNKPAVQLLYNRS, SSKEEQKLIATSNKPAVNLLYNRS is lower in protein stability index: 4.39 for the first, 4.26 for the second.

Compared with SSKEEQKLIATSNKPAVMLLYNRS, SSKEEQKLIATSNKPAVELLYNRS is higher in protein stability index: 3.45 for the first, 4.34 for the second.

First: SSKEEQKLIATSNKPAVCLLYNRS
Second: SSKEEQKLIATSNKPAVGLLYNRS
The protein stability index of the first is higher: 4.21 for the first, 4.02 for the second.

Going from SSKEEQKLIATSNKPAVSLLYNRS to SSKEEQKLIATSNKPAVALLYNRS, the protein stability index falls from 4.39 to 4.05.

Compared with SSKEEQKLIATSNKPAVLLLYNRS, SSKEEQKLIATSNKPAVFLLYNRS is lower in protein stability index: 3.25 for the first, 2.83 for the second.

First: SSKEEQKLIATSNKPAVVLLYNRS
Second: SSKEEQKLIATSNKPAVKKLYNRS
The protein stability index of the first is lower: 3.13 for the first, 4.69 for the second.

First: SSKEEQKLIATSNKPAVKILYNRS
Second: SSKEEQKLIATSNKPAVKGLYNRS
The protein stability index of the first is higher: 4.59 for the first, 4.13 for the second.

First: SSKEEQKLIATSNKPAVKWLYNRS
Second: SSKEEQKLIATSNKPAVKSLYNRS
The protein stability index of the first is lower: 3.35 for the first, 4.18 for the second.

Going from SSKEEQKLIATSNKPAVKELYNRS to SSKEEQKLIATSNKPAVKQLYNRS, the protein stability index falls from 4.44 to 4.31.

First: SSKEEQKLIATSNKPAVKTLYNRS
Second: SSKEEQKLIATSNKPAVKHLYNRS
The protein stability index of the first is higher: 4.95 for the first, 4.41 for the second.

Compared with SSKEEQKLIATSNKPAVKCLYNRS, SSKEEQKLIATSNKPAVKFLYNRS is lower in protein stability index: 4.39 for the first, 4.12 for the second.

Compared with SSKEEQKLIATSNKPAVKALYNRS, SSKEEQKLIATSNKPAVKNLYNRS is higher in protein stability index: 4.59 for the first, 4.72 for the second.

Going from SSKEEQKLIATSNKPAVKDLYNRS to SSKEEQKLIATSNKPAVKYLYNRS, the protein stability index falls from 4.62 to 4.56.

Going from SSKEEQKLIATSNKPAVKMLYNRS to SSKEEQKLIATSNKPAVKRLYNRS, the protein stability index falls from 4.59 to 4.29.

Compared with SSKEEQKLIATSNKPAVKPLYNRS, SSKEEQKLIATSNKPAVKVLYNRS is lower in protein stability index: 4.94 for the first, 4.25 for the second.
